{"source": "paper PMC4852880", "binders": {"B1": {"name": "J1 (structured_DNA)", "DNA 1": "CGCAATCCTGAGCACG", "DNA 2": "CGTGCTCACCGAATCG", "DNA 3": "GCATTCGGACTATGGC", "DNA 4": "GCCATAGTGGATTGCG"}}, "biological_target": "HMGB1b (rat, UniProt P63159 95-163)", "sequence (P63159 95-163)": "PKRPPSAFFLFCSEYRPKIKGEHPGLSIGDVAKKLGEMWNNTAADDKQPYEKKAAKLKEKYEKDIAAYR", "assay": "EMSA", "data": [{"binder": "B1", "values": [{"measurement": "binding result", "result": "binds"}]}]}
